Assays:
[1] = target: T1, PHD2 and PHD3 fingers of human MLL3 (aa 342-439) (human, UniProt Q8NEZ4 342-439); assay: other fluorescence titration; tryptophan fluorescence, 25 °C; 1.0 µM MLL4 PHD2/3 or MLL3 PHD2/3 with increasing peptide; excitation 295 nm; 20 mM Tris pH 7.2, 150 mM NaCl, 1 mM TCEP, 0.02% Tween20; average of three measurements; settings: both partners purified
T1 construct: PHD2 and PHD3 fingers of human MLL3 (KMT2C), aa 342-439; 15N-labelled for NMR titrations; also used unlabelled as the titrant against MLL3 PHD4; also called MLL3_(PHD2/3); MLL3 PHD2/3; source: E. coli BL21-CodonPlus, purified (glutathione agarose, PreScission cleavage; unlabeled proteins also SEC)
T1 sequence (looked up): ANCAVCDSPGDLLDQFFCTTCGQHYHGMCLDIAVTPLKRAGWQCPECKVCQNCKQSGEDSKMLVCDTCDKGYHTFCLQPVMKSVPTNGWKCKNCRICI

[2] = target: T2, PHD2 and PHD3 fingers of human MLL3 (aa 342-439) (human, UniProt Q8NEZ4 342-439)
T2 chain: T1 sequence (looked up)

[3] = target: T3, PHD2 and PHD3 fingers of human MLL4 (aa 227-324) (human, UniProt O14686 227-324)
T3 chain: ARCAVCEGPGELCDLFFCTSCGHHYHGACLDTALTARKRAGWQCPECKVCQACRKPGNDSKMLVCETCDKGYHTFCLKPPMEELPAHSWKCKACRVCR

[4] = target: T4, PHD2 and PHD3 fingers of human MLL4 (aa 227-324) (human, UniProt O14686 227-324); assay: not stated; fluorescence spectroscopy or NMR: the legends of Fig. 3c and Fig. 4b say that values marked (a) are from NMR and the others from fluorescence; the text does not tell which for these pairs; settings: both partners purified
T4 construct: PHD2 and PHD3 fingers of human MLL4 (KMT2D), aa 227-324; also called MLL4_(PHD2/3); MLL4 PHD2/3; source: E. coli BL21-CodonPlus, purified (glutathione agarose, PreScission cleavage; unlabeled proteins also SEC)
T4 sequence (looked up): T3 chain

B1: ASXL2 peptide (aa 650-670) R655I (peptide, UniProt Q76L83 650-670, looked up)
peptide: NRTGAITLADIKAKAQLVKAQ
notes: ASXL2, residues 650-670; R655I is said to be associated with large intestine cancer; also called R655I mutant of ASXL2; source: synthetic peptide (SynPeptide)
In the case of B1, the binding result [1] is reported as “binds”, the Kd [2] is reported as 10.5 µM and the Kd [3] is reported as 11 µM. For the same binder, the “fold reduction in binding against the wild type ASXL2 peptide” value [4] was ~16 fold.

— paper PMC11161652, “ASXLs binding to the PHD2/3 fingers of MLL4 provides a mechanism for the recruitment of BAP1 to active enhancers” (Nature Communications, 2024)
